From paper PMC6138693, “Structural determinants of Rab11 activation by the guanine nucleotide exchange factor SH3BP5” (Nature Communications, 2018)
One block for each binder: values may come before it.

Experiments:
[1] = molecular target: WT Rab11A (1–211, C-term his) (human) (UniProt P62491)
[2] = molecular target: T1, SH3BP5 (1–265), crystal construct (N-terminal GEF domain of SH3BP5) (UniProt O60239 1-265); test: SEC; SH3BP5 truncation and Rab11(Q70L) mixed at an equimolar amount, 5 min at 4 °C, 20 mM EDTA (pH 7.5) for 1 h at 4 °C, loaded onto Superdex 200 10/300; details: both partners purified
T1 construct: A SeMet form made in E. coli B834 was used for phasing; source: E. coli BL21 C41, purified (GSTrap, TEV cleavage, HiTrap Q, SEC); not shown: GST, N-terminal, cleaved
T1 sequence (looked up): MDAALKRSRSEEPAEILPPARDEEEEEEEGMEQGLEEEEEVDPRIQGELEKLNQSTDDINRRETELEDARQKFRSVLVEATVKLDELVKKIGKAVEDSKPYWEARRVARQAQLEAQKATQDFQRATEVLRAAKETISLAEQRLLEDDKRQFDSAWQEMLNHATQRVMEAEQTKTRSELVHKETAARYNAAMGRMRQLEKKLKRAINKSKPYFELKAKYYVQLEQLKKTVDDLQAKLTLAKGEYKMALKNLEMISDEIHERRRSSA

[3] = molecular target: T2, SH3BP5 (31–455), N-terminally truncated (UniProt O60239 31-455); test: HDX-MS; 1.0 µM Rab11(Q70L) and 1.0 µM SH3BP5 (31–455), incubated on ice with 20 µM EDTA for 1 h; D2O buffer 10 mM HEPES pH 7.5, 500 mM NaCl; 3 s at 1 °C and 3, 30, 300 s at room temperature; details: both partners purified
T2 construct: also called N-terminally truncated SH3BP5 (31–455); N-terminally truncated variant of SH3BP5; source: E. coli BL21 C41, purified (GSTrap, TEV cleavage, HiTrap Q, SEC); not shown: GST, N-terminal, cleaved
T2 sequence (looked up): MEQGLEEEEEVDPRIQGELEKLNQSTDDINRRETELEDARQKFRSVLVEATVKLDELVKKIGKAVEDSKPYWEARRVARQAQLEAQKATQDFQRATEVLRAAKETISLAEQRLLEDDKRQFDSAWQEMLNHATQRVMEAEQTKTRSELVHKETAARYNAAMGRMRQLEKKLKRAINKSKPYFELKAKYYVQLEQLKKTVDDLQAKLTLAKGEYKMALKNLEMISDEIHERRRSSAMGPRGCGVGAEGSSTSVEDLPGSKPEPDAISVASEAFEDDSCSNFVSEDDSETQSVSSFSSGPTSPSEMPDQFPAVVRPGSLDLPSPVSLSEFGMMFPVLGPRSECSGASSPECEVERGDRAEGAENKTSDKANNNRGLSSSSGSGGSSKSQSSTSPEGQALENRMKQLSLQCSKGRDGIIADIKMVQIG

[4] = molecular target: T2, SH3BP5 (31–455), N-terminally truncated; test: HDX-MS; 0.4 µM C-terminally His-tagged Rab11A (1–211) and 0.4 µM SH3BP5 (31–455), with or without 0.2 mg/mL nickelated lipid vesicles; D2O buffer 10 mM HEPES pH 7.5, 200 mM NaCl; 3, 30, 300, 3000 s at room temperature; details: both partners purified

GEF activity on Rab11A (Mant-GDP release), mutant (1000 nM) compared with WT SH3BP5 (52 nM) (fold decrease) [1]: > 100
B1: SH3BP5 (LE250AK) (natural protein)
chain: MDAALKRSRSEEPAEILPPARDEEEEEEEGMEQGLEEEEEVDPRIQGELEKLNQSTDDINRRETELEDARQKFRSVLVEATVKLDELVKKIGKAVEDSKPYWEARRVARQAQLEAQKATQDFQRATEVLRAAKETISLAEQRLLEDDKRQFDSAWQEMLNHATQRVMEAEQTKTRSELVHKETAARYNAAMGRMRQLEKKLKRAINKSKPYFELKAKYYVQLEQLKKTVDDLQAKLTLAKGEYKMALKNAKMISDEIHERRRSSAMGPRGCGVGAEGSSTSVEDLPGSKPEPDAISVASEAFEDDSCSNFVSEDDSETQSVSSFSSGPTSPSEMPDQFPAVVRPGSLDLPSPVSLSEFGMMFPVLGPRSECSGASSPECEVERGDRAEGAENKTSDKANNNRGLSSSSGSGGSSKSQSSTSPEGQALENRMKQLSLQCSKGRDGIIADIKMVQIG

binding result [2]: binds
binding result [3]: binds
B2: Rab11A Q70L (1–213) (natural protein, human, UniProt P62491 1-213, looked up)
chain: MGTRDDEYDYLFKVVLIGDSGVGKSNLLSRFTRNEFNLESKSTIGVEFATRSIQVDGKTIKAQIWDTAGLERYRAITSAYYRGAVGALLVYDIAKHLTYENVERWLKELRDHADSNIVIMLVGNKSDLRHLRAVPTDEARAFAEKNGLSFIETSALDSTNVEAAFQTILTEIYRIVSQKQMSDRRENDMSPSNNVVPIHVPPTTENKPKVQCC
notes: called full-length in the results; dominant active switch II mutant Q70L; Nucleotide removed with EDTA before complex formation; The limits 1-213 are printed for the crystal only; A SeMet form was used for phasing; also called Rab11(Q70L); full-length Q70L Rab11A; source: E. coli BL21 C41, purified (GSTrap, TEV cleavage, HiTrap Q, SEC); not shown: GST, N-terminal, cleaved

binding result [4]: binds
B3: WT Rab11A (1–211, C-term his) (natural protein, human, UniProt P62491 1-211, looked up)
chain: MGTRDDEYDYLFKVVLIGDSGVGKSNLLSRFTRNEFNLESKSTIGVEFATRSIQVDGKTIKAQIWDTAGQERYRAITSAYYRGAVGALLVYDIAKHLTYENVERWLKELRDHADSNIVIMLVGNKSDLRHLRAVPTDEARAFAEKNGLSFIETSALDSTNVEAAFQTILTEIYRIVSQKQMSDRRENDMSPSNNVVPIHVPPTTENKPKVQ
notes: Rab11A, residues 1-211, wild type; The limits 1-211 are printed for the HDX-MS experiment; In GEF assays it was loaded with Mant-GDP; also called Rab11A-His6; Rab11a-His6; source: E. coli BL21 C41, purified (GSTrap, TEV cleavage, HiTrap Q, SEC); not shown: GST, N-terminal, cleaved; His6, C-terminal, kept
